Reference: paper PMC4207663

Columns and labels:
[1] = target: Rco_(LS20)-His(6) (Bacillus subtilis (plasmid pLS20cat)); assay: AUC; sedimentation equilibrium; 10 to 30 uM Rco_(LS20); same buffer as sedimentation velocity; 7,000 to 10,000 rpm; 280 nm; single species model (HeteroAnalysis)
[2] = target: Rco_(LS20)-His(6) (Bacillus subtilis (plasmid pLS20cat)); assay: AUC; sedimentation velocity; 10 uM purified Rco_(LS20); 20 mM Tris-HCl, 250 mM NaCl, 10 mM MgCl2, 1 mM EDTA, 100 mM glycerol, pH 7.4; 43-48 krpm; 280 nm; c(s) analysis with SEDFIT

stoichiometry N [1]: 4
stoichiometry N [2]: 4
Substance: Rco_(LS20)-His(6) (natural protein)
